Test results as given in patent US20250215412A1 (NOVOZYMES A S, published 2025).

T1: Chryseobacterium sp-62563 deamidase polypeptide (second polypeptide, deamidase domain), wildtype (Chryseobacterium sp-62563)
T1 sequence: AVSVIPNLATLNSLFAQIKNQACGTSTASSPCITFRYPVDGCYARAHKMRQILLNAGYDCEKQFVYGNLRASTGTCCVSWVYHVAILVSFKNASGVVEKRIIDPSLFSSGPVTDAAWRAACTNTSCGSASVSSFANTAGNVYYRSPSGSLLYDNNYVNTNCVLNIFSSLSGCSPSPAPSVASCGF

B1: Chryseobacterium sp-62563 propeptide N1C (protein)
chain: CQDPNLVAKESNETAMKDFGKTVPVGIEKEDGKFKISFMVTAQPYEIKDSKENAAYISMIKTAVENETPIHVFLKANTNEIAKVDKATDDDIRYFKSVFTKEVKEENRK
B2: Chryseobacterium sp-62563 propeptide F19P (protein)
chain: NQDPNLVAKESNETAMKDPGKTVPVGIEKEDGKFKISFMVTAQPYEIKDSKENAAYISMIKTAVENETPIHVFLKANTNEIAKVDKATDDDIRYFKSVFTKEVKEENRK
B3: Chryseobacterium sp-62563 propeptide F19L (protein)
chain: NQDPNLVAKESNETAMKDLGKTVPVGIEKEDGKFKISFMVTAQPYEIKDSKENAAYISMIKTAVENETPIHVFLKANTNEIAKVDKATDDDIRYFKSVFTKEVKEENRK
B4: Chryseobacterium sp-62563 propeptide D18R (protein)
chain: NQDPNLVAKESNETAMKRFGKTVPVGIEKEDGKFKISFMVTAQPYEIKDSKENAAYISMIKTAVENETPIHVFLKANTNEIAKVDKATDDDIRYFKSVFTKEVKEENRK
B5: Chryseobacterium sp-62563 propeptide D18P (protein)
chain: NQDPNLVAKESNETAMKPFGKTVPVGIEKEDGKFKISFMVTAQPYEIKDSKENAAYISMIKTAVENETPIHVFLKANTNEIAKVDKATDDDIRYFKSVFTKEVKEENRK
B6: Chryseobacterium sp-62563 propeptide D18M (protein)
chain: NQDPNLVAKESNETAMKMFGKTVPVGIEKEDGKFKISFMVTAQPYEIKDSKENAAYISMIKTAVENETPIHVFLKANTNEIAKVDKATDDDIRYFKSVFTKEVKEENRK
B7: Chryseobacterium sp-62563 propeptide D18K (protein)
chain: NQDPNLVAKESNETAMKKFGKTVPVGIEKEDGKFKISFMVTAQPYEIKDSKENAAYISMIKTAVENETPIHVFLKANTNEIAKVDKATDDDIRYFKSVFTKEVKEENRK
B8: Chryseobacterium sp-62563 propeptide D18G (protein)
chain: NQDPNLVAKESNETAMKGFGKTVPVGIEKEDGKFKISFMVTAQPYEIKDSKENAAYISMIKTAVENETPIHVFLKANTNEIAKVDKATDDDIRYFKSVFTKEVKEENRK
B9: Chryseobacterium sp-62563 propeptide M16G (protein)
chain: NQDPNLVAKESNETAGKDFGKTVPVGIEKEDGKFKISFMVTAQPYEIKDSKENAAYISMIKTAVENETPIHVFLKANTNEIAKVDKATDDDIRYFKSVFTKEVKEENRK
B10: Chryseobacterium sp-62563 propeptide K109G (protein)
chain: NQDPNLVAKESNETAMKDFGKTVPVGIEKEDGKFKISFMVTAQPYEIKDSKENAAYISMIKTAVENETPIHVFLKANTNEIAKVDKATDDDIRYFKSVFTKEVKEENRG
B11: Chryseobacterium sp-62563 propeptide K101Y (protein)
chain: NQDPNLVAKESNETAMKDFGKTVPVGIEKEDGKFKISFMVTAQPYEIKDSKENAAYISMIKTAVENETPIHVFLKANTNEIAKVDKATDDDIRYFKSVFTYEVKEENRK
B12: Chryseobacterium sp-62563 propeptide K101W (protein)
chain: NQDPNLVAKESNETAMKDFGKTVPVGIEKEDGKFKISFMVTAQPYEIKDSKENAAYISMIKTAVENETPIHVFLKANTNEIAKVDKATDDDIRYFKSVFTWEVKEENRK
B13: Chryseobacterium sp-62563 propeptide K101S (protein)
chain: NQDPNLVAKESNETAMKDFGKTVPVGIEKEDGKFKISFMVTAQPYEIKDSKENAAYISMIKTAVENETPIHVFLKANTNEIAKVDKATDDDIRYFKSVFTSEVKEENRK
B14: Chryseobacterium sp-62563 propeptide K101P (protein)
chain: NQDPNLVAKESNETAMKDFGKTVPVGIEKEDGKFKISFMVTAQPYEIKDSKENAAYISMIKTAVENETPIHVFLKANTNEIAKVDKATDDDIRYFKSVFTPEVKEENRK
B15: Chryseobacterium sp-62563 propeptide K101N (protein)
chain: NQDPNLVAKESNETAMKDFGKTVPVGIEKEDGKFKISFMVTAQPYEIKDSKENAAYISMIKTAVENETPIHVFLKANTNEIAKVDKATDDDIRYFKSVFTNEVKEENRK
B16: Chryseobacterium sp-62563 propeptide K101M (protein)
chain: NQDPNLVAKESNETAMKDFGKTVPVGIEKEDGKFKISFMVTAQPYEIKDSKENAAYISMIKTAVENETPIHVFLKANTNEIAKVDKATDDDIRYFKSVFTMEVKEENRK
B17: Chryseobacterium sp-62563 propeptide K101L (protein)
chain: NQDPNLVAKESNETAMKDFGKTVPVGIEKEDGKFKISFMVTAQPYEIKDSKENAAYISMIKTAVENETPIHVFLKANTNEIAKVDKATDDDIRYFKSVFTLEVKEENRK
B18: Chryseobacterium sp-62563 propeptide K101I (protein)
chain: NQDPNLVAKESNETAMKDFGKTVPVGIEKEDGKFKISFMVTAQPYEIKDSKENAAYISMIKTAVENETPIHVFLKANTNEIAKVDKATDDDIRYFKSVFTIEVKEENRK
B19: Chryseobacterium sp-62563 propeptide K101G (protein)
chain: NQDPNLVAKESNETAMKDFGKTVPVGIEKEDGKFKISFMVTAQPYEIKDSKENAAYISMIKTAVENETPIHVFLKANTNEIAKVDKATDDDIRYFKSVFTGEVKEENRK
B20: Chryseobacterium sp-62563 propeptide K101E (protein)
chain: NQDPNLVAKESNETAMKDFGKTVPVGIEKEDGKFKISFMVTAQPYEIKDSKENAAYISMIKTAVENETPIHVFLKANTNEIAKVDKATDDDIRYFKSVFTEEVKEENRK
B21: Chryseobacterium sp-62563 propeptide K101D (protein)
chain: NQDPNLVAKESNETAMKDFGKTVPVGIEKEDGKFKISFMVTAQPYEIKDSKENAAYISMIKTAVENETPIHVFLKANTNEIAKVDKATDDDIRYFKSVFTDEVKEENRK
B22: Chryseobacterium sp-62563 propeptide K101C (protein)
chain: NQDPNLVAKESNETAMKDFGKTVPVGIEKEDGKFKISFMVTAQPYEIKDSKENAAYISMIKTAVENETPIHVFLKANTNEIAKVDKATDDDIRYFKSVFTCEVKEENRK
B23: Chryseobacterium sp-62563 propeptide K101A (protein)
chain: NQDPNLVAKESNETAMKDFGKTVPVGIEKEDGKFKISFMVTAQPYEIKDSKENAAYISMIKTAVENETPIHVFLKANTNEIAKVDKATDDDIRYFKSVFTAEVKEENRK
B24: Chryseobacterium sp-62563 propeptide T100Q (protein)
chain: NQDPNLVAKESNETAMKDFGKTVPVGIEKEDGKFKISFMVTAQPYEIKDSKENAAYISMIKTAVENETPIHVFLKANTNEIAKVDKATDDDIRYFKSVFQKEVKEENRK
B25: Chryseobacterium sp-62563 propeptide T100E (protein)
chain: NQDPNLVAKESNETAMKDFGKTVPVGIEKEDGKFKISFMVTAQPYEIKDSKENAAYISMIKTAVENETPIHVFLKANTNEIAKVDKATDDDIRYFKSVFEKEVKEENRK
B26: Chryseobacterium sp-62563 propeptide R108N (protein)
chain: NQDPNLVAKESNETAMKDFGKTVPVGIEKEDGKFKISFMVTAQPYEIKDSKENAAYISMIKTAVENETPIHVFLKANTNEIAKVDKATDDDIRYFKSVFTKEVKEENNK
B27: Chryseobacterium sp-62563 propeptide K109C (protein)
chain: NQDPNLVAKESNETAMKDFGKTVPVGIEKEDGKFKISFMVTAQPYEIKDSKENAAYISMIKTAVENETPIHVFLKANTNEIAKVDKATDDDIRYFKSVFTKEVKEENRC
B28: Chryseobacterium sp-62563 propeptide E10P (protein)
chain: NQDPNLVAKPSNETAMKDFGKTVPVGIEKEDGKFKISFMVTAQPYEIKDSKENAAYISMIKTAVENETPIHVFLKANTNEIAKVDKATDDDIRYFKSVFTKEVKEENRK
B29: Chryseobacterium sp-62563 propeptide E13C (protein)
chain: NQDPNLVAKESNCTAMKDFGKTVPVGIEKEDGKFKISFMVTAQPYEIKDSKENAAYISMIKTAVENETPIHVFLKANTNEIAKVDKATDDDIRYFKSVFTKEVKEENRK
B30: Chryseobacterium sp-62563 propeptide T14P (protein)
chain: NQDPNLVAKESNEPAMKDFGKTVPVGIEKEDGKFKISFMVTAQPYEIKDSKENAAYISMIKTAVENETPIHVFLKANTNEIAKVDKATDDDIRYFKSVFTKEVKEENRK
B31: Chryseobacterium sp-62563 propeptide G20D (protein)
chain: NQDPNLVAKESNETAMKDFDKTVPVGIEKEDGKFKISFMVTAQPYEIKDSKENAAYISMIKTAVENETPIHVFLKANTNEIAKVDKATDDDIRYFKSVFTKEVKEENRK

Biological target: T1, Chryseobacterium sp-62563 deamidase polypeptide (second polypeptide, deamidase domain), wildtype (Chryseobacterium sp-62563)
Assay: cell-based or functional assay

| Binder | Leakage activity | Relative activity of maturated deamidase (% initial rate) |
| --- | --- | --- |
| B1 | 0% | 27 |
| B2 | 3% | 71 |
| B3 |  | 33 |
| B4 | 0% | 51 |
| B5 | 0% | 66 |
| B6 | 0% | 34 |
| B7 | 5% | 37 |
| B8 | 0% | 62 |
| B9 | 0% | 27 |
| B10 | 0% | 29 |
| B11 |  | 46 |
| B12 |  | 54 |
| B13 |  | 29 |
| B14 |  | 36 |
| B15 |  | 29 |
| B16 |  | 29 |

| Binder | Leakage activity | Relative activity of maturated deamidase (% initial rate) |
| --- | --- | --- |
| B17 |  | 41 |
| B18 |  | 38 |
| B19 |  | 34 |
| B20 |  | 45 |
| B21 |  | 46 |
| B22 |  | 38 |
| B23 |  | 36 |
| B24 |  | 79 |
| B25 |  | 75 |
| B26 | 0% |  |
| B27 | 0% |  |
| B28 | 0% |  |
| B29 | 0% |  |
| B30 | 0% |  |
| B31 | 0% |  |
